Test results: paper PMC5662737, “Structural and mechanistic insights into ATRX-dependent and -independent functions of the histone chaperone DAXX” (Nature Communications, 2017)

Columns and labels:
hDAXX 4HB F87A = target: T1, hDAXX 4HB F87A (Homo sapiens); assay: ITC
T1 chain: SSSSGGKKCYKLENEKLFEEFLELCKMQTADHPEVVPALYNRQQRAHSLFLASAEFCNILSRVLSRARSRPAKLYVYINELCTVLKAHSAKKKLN

[1] = target: T2, human DAXX 4HB F87L (tumor mutation) (human, UniProt Q9UER7 50-144, F87L); assay: ITC; 17 injections of 2.2 μl ATRX DBM peptide (1.5 mM) into 200 µl DAXX 4HB or mutants (150 µM); 20 °C; 20 mM Tris pH 7.5, 0.3 M NaCl; single site-binding model; details: both partners purified
T2 construct: DAXX, human, four-helix bundle, residues 50-144, with the tumor mutation F87L; also called DAXX F87L; source: E. coli BL21(DE3)-RIL, purified (Ni-NTA, heparin, Superdex 200); not shown: His6-SUMO, N-terminal, cleaved
T2 sequence (looked up): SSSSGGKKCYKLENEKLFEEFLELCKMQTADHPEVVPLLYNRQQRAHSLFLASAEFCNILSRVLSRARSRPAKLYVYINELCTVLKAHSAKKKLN

[2] = target: T3, human DAXX four-helix bundle domain (4HB, residues 50–144) (human, UniProt Q9UER7 50-144); assay: as above; details: both partners purified
T3 construct: DAXX (death-domain-associated protein), human, N-terminal four-helix bundle, residues 50-144; Expressed and purified 'in a similar way' as the fusion protein (His6-SUMO removed with Ulp1); also called DAXX 4HB; hDAXX 4HB; source: E. coli BL21(DE3)-RIL, purified (Ni-NTA, heparin, Superdex 200); not shown: His6-SUMO, N-terminal, cleaved
T3 sequence (looked up): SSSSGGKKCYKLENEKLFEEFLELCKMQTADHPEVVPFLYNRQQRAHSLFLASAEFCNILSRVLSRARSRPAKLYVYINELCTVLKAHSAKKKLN

[3] = target: T4, human DAXX four-helix bundle domain (4HB, residues 50–144) (human, UniProt Q9UER7 50-144); assay: ITC
T4 chain: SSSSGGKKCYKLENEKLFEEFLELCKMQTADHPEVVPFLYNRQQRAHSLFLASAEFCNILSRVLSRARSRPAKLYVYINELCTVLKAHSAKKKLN

B1: human ATRX DAXX-binding motif (DBM) peptide, wild type (peptide, UniProt P46100 1265-1288, looked up)
peptide: NDPENRIAKKMLLEEIKANLSSDE
notes: The limits 1265–1288 are printed for the DBM of the fusion construct; also called ATRX DBM; hATRX DBM; source: synthetic peptide (Tufts University Peptide Core Facility)
For B1, which Kd (hDAXX 4HB F87A) is on record?
Its Kd is 7.5 µM.

What about the Kd [1] of the same binder?
The Kd was 33.8 µM.

And the Kd [2]?
The Kd was 0.9 µM.

B2: human ATRX DBM peptide I1280A (peptide, UniProt P46100 1265-1288, looked up)
peptide: NDPENRIAKKMLLEEAKANLSSDE
notes: ATRX, human, DBM, residues 1265-1288, with I1280A; Limits as for m4; also called ATRX I1280A mutant; source: synthetic peptide (Tufts University Peptide Core Facility)
What does the source list for B2?
Kd [3]: 12.9 µM; fold weaker binding than wild-type ATRX DBM [2]: ~14 fold
